This data set concerns Stat3-C (A662C/N664C Stat3) (Mus musculus). As to the kind of experiment: cell_activity. As to conditions: approximately 10-fold, no induced tyrosine phosphorylation.

4x m67 luciferase reporter displayed an activity (fold over background) of 10.

Values taken from patent publication US6235873.
